The target of experiment [1] is trypsin. The experiment is described as follows: TRF ELISA, Fab on biotinylated trypsin. A general note: An ELISA detects its analyte on a solid surface through an enzyme-linked reagent.
In experiment [2] the target is trypsin. The experiment is described as follows: monoclonal phage TRF ELISA.
Experiment [3] deals with trypsin. The experiment is described as follows: phage TRF ELISA; GlyAla (Pro3Gly, Arg4Ala) mutant against the clone.

B1: KB_A01 Fab (Fab, V domains shown)
VH: EVQLVESGGGLVRPGGSLRLSCAASGFTFSSYAMSWVRQAPGKGLEWVSAISGSGGSTYYADSVKGRFTISRDNTKNSLYLQMTSLRADDTAFYYCVKDFGPGYGTGWFDYWGPGTLVTVSS
VL: YLNWYQQKPGKAPKLLIYAAEVCPRILMRCKQDSDCLAGCVCGPNGFCGGTSGVPSRFSGSRSGTEFTLTISSLQPEDFATYYCQKVDDYPLTFGGGTKVEIKR
On to B1, for which, in the experiment with trypsin [1], the TRF signal for 0.6 ug/mL Fab was found to be 2390, the TRF signal for 2.4 ug/mL Fab was 16600 and the TRF signal for 10 ug/mL Fab is 55600.

B2: KB_A03 (scFv, V domains shown)
VH: EVQLVESGGGLVRPGGSLRLSCAASGFTFSSYAMSWVRQAPGKGLEWVSAISGSGGSTYYADSVKGRFTISRDNTKNSLYLQMTSLRADDTAFYYCVKDFGPGYGTGWFDYWGPGTLVTVSS
VL: AVNWYQQLPGKAPKLLINAADRCPRILMRCKQDSDCLAGCVCGPNGFCGTNSGVPDRFSGSSSGNTASLTITGAQAEDEADYYCNSRDSSGNNWVFGGGTKVTVLG
In the case of B2, the trypsin binding signal (FU) in the experiment with trypsin [2] turned out to be 28700 FU. For the same molecule, in the experiment with trypsin [3], the % reduction in binding signal stood at 90%.

B3: KB_A09 Fab (Fab, V domains shown)
VH: EVQLVESGGGLVRPGGSLRLSCAASGFTFSSYAMSWVRQAPGKGLEWVSAISGSGGSTYYADSVKGRFTISRDNTKNSLYLQMTSLRADDTAFYYCVKDFGPGYGTGWFDYWGPGTLVTVSS
VL: AVNWYQQLPGKAPKLLIYAAERCPRILMRCKQDSDCLAGCVCGPNGFCGTPSGVPDRFSGSIDTFSNSASLTISGLKTEDEADYYCQSYDSSHHWVFGGGTKLTVLG
In the experiment with trypsin [1], B3 yielded a TRF signal for 0.6 ug/mL Fab of 21000, a TRF signal for 2.4 ug/mL Fab of 84100 and a TRF signal for 10 ug/mL Fab of 161000.

B4: KB_C07 Fab (Fab, V domains shown)
VH: EVQLVESGGGLVRPGGSLRLSCAASGFTFSSYAMSWVRQAPGKGLEWVSAISGSGGSTYYADSVKGRFTISRDNTKNSLYLQMTSLRADDTAFYYCVKDFGPGYGTGWFDYWGPGTLVTVSS
VL: AVNWYQQLPGKAPKLLIYAAVGCPRILMRCKQDSDCLAGCVCGPNGFCGSASGVSDRFSGSKSGTSASLAISGLRSEDEADYYCASWDDSLRGYVFGTGTKVTVLG
In the experiment with trypsin [1], B4 displayed a TRF signal for 0.6 ug/mL Fab of 153000, a TRF signal for 2.4 ug/mL Fab of 247000 and a TRF signal for 10 ug/mL Fab of 276000.

B5: KB_A01 (scFv, V domains shown)
VH: EVQLVESGGGLVRPGGSLRLSCAASGFTFSSYAMSWVRQAPGKGLEWVSAISGSGGSTYYADSVKGRFTISRDNTKNSLYLQMTSLRADDTAFYYCVKDFGPGYGTGWFDYWGPGTLVTVSS
VL: YLNWYQQKPGKAPKLLIYAAEVCPRILMRCKQDSDCLAGCVCGPNGFCGGTSGVPSRFSGSRSGTEFTLTISSLQPEDFATYYCQKVDDYPLTFGGGTKVEIKR
Turning to B5, the trypsin binding signal (FU) with trypsin [2] came out at 20200 FU. This molecule also came in with a % reduction in binding signal in the experiment with trypsin [3] of 93%.

B6: KB_A02 Fab (Fab, V domains shown)
VH: EVQLVESGGGLVRPGGSLRLSCAASGFTFSSYAMSWVRQAPGKGLEWVSAISGSGGSTYYADSVKGRFTISRDNTKNSLYLQMTSLRADDTAFYYCVKDFGPGYGTGWFDYWGPGTLVTVSS
VL: AVNWYQQLPGKAPKLLIYAAAKCPRILMRCKQDSDCLAGCVCGPNGFCGGASGVSDRFSGSIDSSSNSASLTISGLKPEDEGDYYCQSYDSSNRWVFGGGTKVTVLG
On to B6, for which, in the experiment with trypsin [1], the TRF signal for 0.6 ug/mL Fab was found to be 93800, the TRF signal for 2.4 ug/mL Fab is 221000 and the TRF signal for 10 ug/mL Fab came to 255000.

B7: KB_A02 (scFv, V domains shown)
VH: EVQLVESGGGLVRPGGSLRLSCAASGFTFSSYAMSWVRQAPGKGLEWVSAISGSGGSTYYADSVKGRFTISRDNTKNSLYLQMTSLRADDTAFYYCVKDFGPGYGTGWFDYWGPGTLVTVSS
VL: AVNWYQQLPGKAPKLLIYAAAKCPRILMRCKQDSDCLAGCVCGPNGFCGGASGVSDRFSGSIDSSSNSASLTISGLKPEDEGDYYCQSYDSSNRWVFGGGTKVTVLG
For the molecule B7, the trypsin binding signal (FU) with trypsin [2] turned out to be 183000 FU. In the experiment with trypsin [3], this molecule came in with a % reduction in binding signal of 96%.

B8: KB_A11 Fab (Fab, V domains shown)
VH: EVQLVESGGGLVRPGGSLRLSCAASGFTFSSYAMSWVRQAPGKGLEWVSAISGSGGSTYYADSVKGRFTISRDNTKNSLYLQMTSLRADDTAFYYCVKDFGPGYGTGWFDYWGPGTLVTVSS
VL: YLNWYQQKPGKAPKLLIYAAEICPRILMRCKQDSDCLAGCVCGPNGFCGPSSGIPARFSGSGYGTDFTLTINNIESEDAAYYFCLQHDNFPYTFGQGTKVEIKR
In the experiment with trypsin [1], B8 gave a TRF signal for 0.6 ug/mL Fab of 48900, a TRF signal for 2.4 ug/mL Fab of 141000 and a TRF signal for 10 ug/mL Fab of 212000.

B9: KB_A07 Fab (Fab, V domains shown)
VH: EVQLVESGGGLVRPGGSLRLSCAASGFTFSSYAMSWVRQAPGKGLEWVSAISGSGGSTYYADSVKGRFTISRDNTKNSLYLQMTSLRADDTAFYYCVKDFGPGYGTGWFDYWGPGTLVTVSS
VL: YLNWYQQKPGKAPKLLIYAAGVCPRILMRCKQDSDCLAGCVCGPNGFCGSRSGVPSRFSGSGSGTDFTLTISSLQPEDFATYYCQQGASPPYTFGQGTKVEIKR
In the experiment with trypsin [1], B9 registered a TRF signal for 0.6 ug/mL Fab of 108000, a TRF signal for 2.4 ug/mL Fab of 201000 and a TRF signal for 10 ug/mL Fab of 226000.

B10: KB_C10 Fab (Fab, V domains shown)
VH: EVQLVESGGGLVRPGGSLRLSCAASGFTFSSYAMSWVRQAPGKGLEWVSAISGSGGSTYYADSVKGRFTISRDNTKNSLYLQMTSLRADDTAFYYCVKDFGPGYGTGWFDYWGPGTLVTVSS
VL: AVNWYQQLPGKAPKLLIYAAGPCPRILMRCKQDSDCLAGCVCGPNGFCGADSGVSDRFSGSKSGTSASLAITGLQAEDEGDYYCAAWDDSLNGLVFGGGTKVTVLG
Consider B10, for which, in the experiment with trypsin [1], the TRF signal for 0.6 ug/mL Fab turned out to be 41700, the TRF signal for 2.4 ug/mL Fab was 146000 and the TRF signal for 10 ug/mL Fab worked out at 238000.

B11: KB_C09 Fab (Fab, V domains shown)
VH: EVQLVESGGGLVRPGGSLRLSCAASGFTFSSYAMSWVRQAPGKGLEWVSAISGSGGSTYYADSVKGRFTISRDNTKNSLYLQMTSLRADDTAFYYCVKDFGPGYGTGWFDYWGPGTLVTVSS
VL: AVNWYQQLPGKAPKLLIYAAGRCPRILMRCKQDSDCLAGCVCGPNGFCGGGSGVPDRFSGSIDSSSNSASLTISGLRAEDEADYYCQSYDSSNHWVFGGGTKLTVLG
Turning to B11, in the experiment with trypsin [1], the TRF signal for 0.6 ug/mL Fab amounted to 46800, the TRF signal for 2.4 ug/mL Fab turned out to be 205000 and the TRF signal for 10 ug/mL Fab worked out at 289000.

B12: KB_A05 (scFv, V domains shown)
VH: EVQLVESGGGLVRPGGSLRLSCAASGFTFSSYAMSWVRQAPGKGLEWVSAISGSGGSTYYADSVKGRFTISRDNTKNSLYLQMTSLRADDTAFYYCVKDFGPGYGTGWFDYWGPGTLVTVSS
VL: AVNWYQQLPGKAPKLLIYAADKCPRILMRCKQDSDCLAGCVCGPNGFCGGGSGIPERFSGSKSGTSASLAISGLRSEDEADYYCATWDDNLNGVVFGGGTKLTVLG
Regarding B12, the trypsin binding signal (FU) with trypsin [2] came to 121000 FU. In the experiment with trypsin [3], this molecule had a % reduction in binding signal of 100%.

B13: KB_C08 Fab (Fab, V domains shown)
VH: EVQLVESGGGLVRPGGSLRLSCAASGFTFSSYAMSWVRQAPGKGLEWVSAISGSGGSTYYADSVKGRFTISRDNTKNSLYLQMTSLRADDTAFYYCVKDFGPGYGTGWFDYWGPGTLVTVSS
VL: AVNWYQQLPGKAPKLLIYAAAVCPRILMRCKQDSDCLAGCVCGPNGFCGTRSGIPERFSGSKSGTSAFLAISGLRSEDEADYYCAAWDDSLSGVVFGGGTKLTVLG
With B13, in the experiment with trypsin [1], the TRF signal for 0.6 ug/mL Fab worked out at 51100, the TRF signal for 2.4 ug/mL Fab turned out to be 131000 and the TRF signal for 10 ug/mL Fab was 183000.

B14: KB_A06 Fab (Fab, V domains shown)
VH: EVQLVESGGGLVRPGGSLRLSCAASGFTFSSYAMSWVRQAPGKGLEWVSAISGSGGSTYYADSVKGRFTISRDNTKNSLYLQMTSLRADDTAFYYCVKDFGPGYGTGWFDYWGPGTLVTVSS
VL: AVNWYQQLPGKAPKLLIYAAVRCPRILMRCKQDSDCLAGCVCGPNGFCGTPSGIPERFSGSIDRSTNSASLTISGLKTEDEADYYCQSYDSSNLNWVFGGGTKLTVLG
Consider B14, for which, in the experiment with trypsin [1], the TRF signal for 0.6 ug/mL Fab worked out at 108000, the TRF signal for 2.4 ug/mL Fab is 212000 and the TRF signal for 10 ug/mL Fab was 242000.

B15: KB_B02 Fab (Fab, V domains shown)
VH: EVQLVESGGGLVRPGGSLRLSCAASGFTFSSYAMSWVRQAPGKGLEWVSAISGSGGSTYYADSVKGRFTISRDNTKNSLYLQMTSLRADDTAFYYCVKDFGPGYGTGWFDYWGPGTLVTVSS
VL: AVNWYQQLPGKAPKLLIYAAVGCPRILMRCKQDSDCLAGCVCGPNGFCGTGSGIPERFSGSKSGNTASLTISGLQAEDEGDYYCAAWDDSLSGPVFGGGTKLTVLG
Consider B15, for which, in the experiment with trypsin [1], the TRF signal for 0.6 ug/mL Fab is 2340, the TRF signal for 2.4 ug/mL Fab was 15900 and the TRF signal for 10 ug/mL Fab came to 56600.

B16: KB_B01 Fab (Fab, V domains shown)
VH: EVQLVESGGGLVRPGGSLRLSCAASGFTFSSYAMSWVRQAPGKGLEWVSAISGSGGSTYYADSVKGRFTISRDNTKNSLYLQMTSLRADDTAFYYCVKDFGPGYGTGWFDYWGPGTLVTVSS
VL: AVNWYQQLPGKAPKLLIYAAAGCPRILMRCKQDSDCLAGCVCGPNGFCGTRSGVSDRFSGSKSGTSASLAISGLRSEDEADYYCAAWDDSLRAYVFGTGTKLTVLG
Turning to B16, in the experiment with trypsin [1], the TRF signal for 0.6 ug/mL Fab was determined as 54800, the TRF signal for 2.4 ug/mL Fab is 153000 and the TRF signal for 10 ug/mL Fab came to 257000.

B17: KB_A10 Fab (Fab, V domains shown)
VH: EVQLVESGGGLVRPGGSLRLSCAASGFTFSSYAMSWVRQAPGKGLEWVSAISGSGGSTYYADSVKGRFTISRDNTKNSLYLQMTSLRADDTAFYYCVKDFGPGYGTGWFDYWGPGTLVTVSS
VL: AVNWYQQLPGKAPKLLIYAAGGCPRILMRCKQDSDCLAGCVCGPNGFCGSNSGVPDRFSGSKSGNTASLTISGLQSEDEADYYCAAWDDSLSGVVFGGGTQLTVLG
As to B17, in the experiment with trypsin [1], the TRF signal for 0.6 ug/mL Fab is 14600, the TRF signal for 2.4 ug/mL Fab was 71900 and the TRF signal for 10 ug/mL Fab was found to be 68700.

B18: KB_A06 (scFv, V domains shown)
VH: EVQLVESGGGLVRPGGSLRLSCAASGFTFSSYAMSWVRQAPGKGLEWVSAISGSGGSTYYADSVKGRFTISRDNTKNSLYLQMTSLRADDTAFYYCVKDFGPGYGTGWFDYWGPGTLVTVSS
VL: AVNWYQQLPGKAPKLLIYAAVRCPRILMRCKQDSDCLAGCVCGPNGFCGTPSGIPERFSGSIDRSTNSASLTISGLKTEDEADYYCQSYDSSNLNWVFGGGTKLTVLG
Molecule B18 had a trypsin binding signal (FU) with trypsin [2] of 24400 FU. The % reduction in binding signal in the experiment with trypsin [3] was 100%.

Values taken from US20260043020A1, “BINDING MEMBERS WITH ALTERED DIVERSITY SCAFFOLD DOMAINS” (priority 2016, published 2026).
